Source: PMC9482650, “Quantitative fragmentomics allow affinity mapping of interactomes” (Nature Communications, 2022)

How the values were obtained:
Assay in all cases: holdup assay
Set-up in all cases: key: below the threshold = too weak to quantify, mostly under pKd 3.1 to 4
MPP2, Q14168 = target: T1, MPP2, Q14168
T1 sequence (Q14168 180-250, limits assumed, looked up): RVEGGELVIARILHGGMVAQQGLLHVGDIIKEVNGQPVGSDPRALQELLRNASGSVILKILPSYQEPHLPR

LNX1_3, Q8TBB1 = target: LNX1_3, Q8TBB1
APBA1_2, Q02410 = target: T2, APBA1_2, Q02410
T2 sequence (Q02410 742-832, limits assumed, looked up): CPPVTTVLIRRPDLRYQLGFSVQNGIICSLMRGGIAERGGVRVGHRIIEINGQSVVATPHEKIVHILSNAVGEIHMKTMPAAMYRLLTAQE

NOS1, P29475 = target: NOS1, P29475
NOS1, P29475, sequence (P29475 9-101): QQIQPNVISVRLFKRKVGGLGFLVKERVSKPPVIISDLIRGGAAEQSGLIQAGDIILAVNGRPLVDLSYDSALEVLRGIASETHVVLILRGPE

DLG4_2, P78352 = target: DLG4_2, P78352
DLG4_2, P78352, sequence (P78352 155-259): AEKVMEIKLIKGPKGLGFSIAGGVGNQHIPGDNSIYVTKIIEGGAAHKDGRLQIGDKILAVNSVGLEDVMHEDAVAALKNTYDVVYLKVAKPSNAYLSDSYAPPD

FRMPD2_2, Q68DX3 = target: FRMPD2_2, Q68DX3
FRMPD2_2, Q68DX3, sequence (Q68DX3 944-1038): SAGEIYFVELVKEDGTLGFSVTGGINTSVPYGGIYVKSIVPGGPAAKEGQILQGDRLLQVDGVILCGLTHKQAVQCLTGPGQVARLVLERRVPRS

DLG3_3, Q92796 = target: T3, DLG3_3, Q92796
T3 sequence (Q92796 374-475, limits assumed, looked up): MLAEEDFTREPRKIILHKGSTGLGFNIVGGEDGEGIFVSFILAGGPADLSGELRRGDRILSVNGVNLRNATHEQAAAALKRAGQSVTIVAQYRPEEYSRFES

GRIP1_7, Q9Y3R0 = target: T4, GRIP1_7, Q9Y3R0
T4 sequence (Q9Y3R0 999-1096, limits assumed, looked up): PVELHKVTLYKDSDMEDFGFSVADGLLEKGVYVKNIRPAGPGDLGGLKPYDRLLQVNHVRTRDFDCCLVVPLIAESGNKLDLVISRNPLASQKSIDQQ

MAGI2_6, Q86UL8 = target: MAGI2_6, Q86UL8
MAGI2_6, Q86UL8, sequence (Q86UL8 1141-1229): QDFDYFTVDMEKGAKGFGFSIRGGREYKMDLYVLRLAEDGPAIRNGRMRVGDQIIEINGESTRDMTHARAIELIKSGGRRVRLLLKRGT

PTPN13_1, Q12923 = target: T5, PTPN13_1, Q12923
T5 sequence (Q12923 1088-1188, limits assumed, looked up): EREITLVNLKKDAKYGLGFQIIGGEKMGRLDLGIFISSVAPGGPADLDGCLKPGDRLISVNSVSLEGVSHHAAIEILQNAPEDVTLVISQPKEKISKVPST

NHERF4_2, Q86UT5 = target: NHERF4_2, Q86UT5
NHERF4_2, Q86UT5, sequence (Q86UT5 220-308): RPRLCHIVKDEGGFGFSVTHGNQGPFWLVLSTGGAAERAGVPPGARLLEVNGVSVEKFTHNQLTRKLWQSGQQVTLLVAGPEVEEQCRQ

LIN7B, Q9HAP6 = target: T6, LIN7B, Q9HAP6
T6 sequence (Q9HAP6 88-185, limits assumed, looked up): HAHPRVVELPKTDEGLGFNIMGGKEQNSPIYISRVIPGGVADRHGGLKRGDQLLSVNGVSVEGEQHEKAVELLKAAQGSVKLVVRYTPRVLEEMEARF

AHNAK1, Q09666 = target: AHNAK1, Q09666
AHNAK1, Q09666, sequence (Q09666 4-100): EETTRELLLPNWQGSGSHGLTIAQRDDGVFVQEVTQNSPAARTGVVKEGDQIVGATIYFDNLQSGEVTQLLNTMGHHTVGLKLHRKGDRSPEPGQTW

MPDZ_12, O75970 = target: T7, MPDZ_12, O75970
T7 sequence (O75970 1857-1958, limits assumed, looked up): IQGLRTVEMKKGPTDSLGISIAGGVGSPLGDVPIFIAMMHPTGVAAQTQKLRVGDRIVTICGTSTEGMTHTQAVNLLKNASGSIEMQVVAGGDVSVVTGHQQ

SNTG2, Q9NY99 = target: T8, SNTG2, Q9NY99
T8 sequence (Q9NY99 68-166, limits assumed, looked up): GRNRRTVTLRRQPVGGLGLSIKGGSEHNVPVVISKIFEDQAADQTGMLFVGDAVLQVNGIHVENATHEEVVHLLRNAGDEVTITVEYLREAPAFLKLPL

PDZD2_2, O15018 = target: T9, PDZD2_2, O15018
T9 sequence (O15018 329-429, limits assumed, looked up): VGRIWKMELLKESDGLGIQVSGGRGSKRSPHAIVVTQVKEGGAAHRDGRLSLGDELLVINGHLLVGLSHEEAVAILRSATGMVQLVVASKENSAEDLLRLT

GRIP1_4, Q9Y3R0 = target: T10, GRIP1_4, Q9Y3R0
T10 sequence (Q9Y3R0 467-571, limits assumed, looked up): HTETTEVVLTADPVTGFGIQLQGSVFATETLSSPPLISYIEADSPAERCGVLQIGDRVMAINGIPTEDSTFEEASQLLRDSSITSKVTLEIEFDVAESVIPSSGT

NHERF3_4, Q5T2W1 = target: T11, NHERF3_4, Q5T2W1
T11 sequence (Q5T2W1 373-468, limits assumed, looked up): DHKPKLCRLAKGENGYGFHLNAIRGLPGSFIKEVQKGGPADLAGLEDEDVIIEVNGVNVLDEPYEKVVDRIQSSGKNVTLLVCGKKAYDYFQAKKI

FRMPD2_1, Q68DX3 = target: FRMPD2_1, Q68DX3
FRMPD2_1, Q68DX3, sequence (Q68DX3 770-861): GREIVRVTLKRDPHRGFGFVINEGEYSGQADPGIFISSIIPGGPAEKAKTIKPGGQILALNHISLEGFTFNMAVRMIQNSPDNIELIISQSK

SCRIB_3, Q14160 = target: SCRIB_3, Q14160
SCRIB_3, Q14160, sequence (Q14160 999-1103): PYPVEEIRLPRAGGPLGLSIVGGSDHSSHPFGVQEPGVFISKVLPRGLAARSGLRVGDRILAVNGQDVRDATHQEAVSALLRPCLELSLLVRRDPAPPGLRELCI

LIMK2, P53671 = target: LIMK2, P53671
LIMK2, P53671, sequence (P53671 143-248): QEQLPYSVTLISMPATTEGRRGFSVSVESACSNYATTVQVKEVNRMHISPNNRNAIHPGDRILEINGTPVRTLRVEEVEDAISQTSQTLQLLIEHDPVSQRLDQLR

GRIP2_7, Q9C0E4 = target: GRIP2_7, Q9C0E4
GRIP2_7, Q9C0E4, sequence (Q9C0E4 934-1023): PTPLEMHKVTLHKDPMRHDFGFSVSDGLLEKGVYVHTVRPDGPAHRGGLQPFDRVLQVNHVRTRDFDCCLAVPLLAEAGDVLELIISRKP

GRID2IP_2, A4D2P6 = target: GRID2IP_2, A4D2P6
GRID2IP_2, A4D2P6, sequence (A4D2P6 272-370): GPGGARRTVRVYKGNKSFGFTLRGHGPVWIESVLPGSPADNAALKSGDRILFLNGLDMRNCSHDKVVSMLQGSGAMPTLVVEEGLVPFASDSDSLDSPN

FRMPD4, Q14CM0 = target: FRMPD4, Q14CM0
FRMPD4, Q14CM0, sequence (Q14CM0 67-160): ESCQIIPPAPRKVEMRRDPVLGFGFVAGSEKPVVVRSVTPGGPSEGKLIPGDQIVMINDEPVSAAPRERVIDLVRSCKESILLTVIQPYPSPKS

MAGI2_4, Q86UL8 = target: MAGI2_4, Q86UL8
MAGI2_4, Q86UL8, sequence (Q86UL8 772-865): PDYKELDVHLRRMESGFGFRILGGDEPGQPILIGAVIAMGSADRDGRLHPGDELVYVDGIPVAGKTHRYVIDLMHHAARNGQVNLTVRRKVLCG

DLG1_2, Q12959 = target: DLG1_2, Q12959
DLG1_2, Q12959, sequence (Q12959 314-412): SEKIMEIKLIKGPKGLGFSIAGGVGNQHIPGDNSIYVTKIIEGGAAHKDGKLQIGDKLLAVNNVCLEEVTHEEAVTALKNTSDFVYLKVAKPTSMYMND

PARD3_3, Q8TEW0 = target: PARD3_3, Q8TEW0
PARD3_3, Q8TEW0, sequence (Q8TEW0 582-685): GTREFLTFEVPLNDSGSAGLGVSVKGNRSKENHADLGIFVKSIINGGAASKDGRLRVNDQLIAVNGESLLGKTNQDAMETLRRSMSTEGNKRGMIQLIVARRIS

[1] = plain residues with an end cap or a label only (N-terminal biotin on a linker: ttds)
[2] = plain residues with an end cap or a label only (N-terminal biotin on a linker: ado-ado)

LNX1_3, Q8TBB1, sequence (Q8TBB1 500-596): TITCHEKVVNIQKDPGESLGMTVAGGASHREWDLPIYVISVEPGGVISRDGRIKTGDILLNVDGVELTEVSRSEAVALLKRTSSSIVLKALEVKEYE

Binder: PKRPFVESNV [TANC2, Q9HCD6]
- pKd (MPP2, Q14168; [1]): below the threshold
- pKd (LNX1_3, Q8TBB1; [1]): below the threshold
- pKd (APBA1_2, Q02410; [1]): below the threshold
- pKd (NOS1, P29475; [1]): below the threshold
- pKd (DLG4_2, P78352; [1]): 4.6
- pKd (FRMPD2_2, Q68DX3; [1]): below the threshold
- pKd (DLG3_3, Q92796; [1]): 3.67
- pKd (GRIP1_7, Q9Y3R0; [1]): below the threshold
- pKd (MAGI2_6, Q86UL8; [1]): 3.76
- pKd (PTPN13_1, Q12923; [1]): below the threshold
- pKd (NHERF4_2, Q86UT5; [1]): below the threshold
- pKd (LIN7B, Q9HAP6; [1]): below the threshold
- pKd (AHNAK1, Q09666; [1]): below the threshold
- pKd (MPDZ_12, O75970; [1]): below the threshold
- pKd (SNTG2, Q9NY99; [1]): 4.37
- pKd (PDZD2_2, O15018; [1]): 4.52
- pKd (GRIP1_4, Q9Y3R0; [1]): below the threshold
- pKd (NHERF3_4, Q5T2W1; [1]): below the threshold
- pKd (FRMPD2_1, Q68DX3; [1]): below the threshold
- pKd (SCRIB_3, Q14160; [1]): 4.79
- pKd (LIMK2, P53671; [1]): below the threshold
- pKd (GRIP2_7, Q9C0E4; [1]): below the threshold
- pKd (GRID2IP_2, A4D2P6; [1]): below the threshold
- pKd (FRMPD4, Q14CM0; [1]): below the threshold
- pKd (MAGI2_4, Q86UL8; [1]): below the threshold
- pKd (DLG1_2, Q12959; [1]): 4.65
- pKd (PARD3_3, Q8TEW0; [1]): below the threshold

Binder: GFGEERESIL [KIDINS220, Q9ULH0]
- pKd (MPP2, Q14168; [2]): below the threshold
- pKd (LNX1_3, Q8TBB1; [2]): below the threshold
- pKd (APBA1_2, Q02410; [2]): below the threshold
- pKd (NOS1, P29475; [2]): below the threshold
- pKd (DLG4_2, P78352; [2]): 3.5
- pKd (FRMPD2_2, Q68DX3; [2]): below the threshold
- pKd (DLG3_3, Q92796; [2]): below the threshold
- pKd (GRIP1_7, Q9Y3R0; [2]): below the threshold
- pKd (MAGI2_6, Q86UL8; [2]): 3.67
- pKd (PTPN13_1, Q12923; [2]): below the threshold
- pKd (NHERF4_2, Q86UT5; [2]): below the threshold
- pKd (LIN7B, Q9HAP6; [2]): below the threshold
- pKd (AHNAK1, Q09666; [2]): below the threshold
- pKd (MPDZ_12, O75970; [2]): below the threshold
- pKd (SNTG2, Q9NY99; [2]): 4.31
- pKd (PDZD2_2, O15018; [2]): 4.65
- pKd (GRIP1_4, Q9Y3R0; [2]): below the threshold
- pKd (NHERF3_4, Q5T2W1; [2]): below the threshold
- pKd (FRMPD2_1, Q68DX3; [2]): below the threshold
- pKd (SCRIB_3, Q14160; [2]): 4.56
- pKd (LIMK2, P53671; [2]): below the threshold
- pKd (GRIP2_7, Q9C0E4; [2]): below the threshold
- pKd (GRID2IP_2, A4D2P6; [2]): 3.86
- pKd (FRMPD4, Q14CM0; [2]): 3.92
- pKd (MAGI2_4, Q86UL8; [2]): below the threshold
- pKd (DLG1_2, Q12959; [2]): 3.88
- pKd (PARD3_3, Q8TEW0; [2]): 4.35

Binder: SEKHFRETEV [HTLV1-TAX1, P03409]
- pKd (MPP2, Q14168; [1]): below the threshold
- pKd (LNX1_3, Q8TBB1; [1]): 3.64
- pKd (APBA1_2, Q02410; [1]): 3.56
- pKd (NOS1, P29475; [1]): 4.09
- pKd (DLG4_2, P78352; [1]): 5.51
- pKd (FRMPD2_2, Q68DX3; [1]): below the threshold
- pKd (DLG3_3, Q92796; [1]): 5.34
- pKd (GRIP1_7, Q9Y3R0; [1]): below the threshold
- pKd (MAGI2_6, Q86UL8; [1]): 4.43
- pKd (PTPN13_1, Q12923; [1]): below the threshold
- pKd (NHERF4_2, Q86UT5; [1]): below the threshold
- pKd (LIN7B, Q9HAP6; [1]): 3.83
- pKd (AHNAK1, Q09666; [1]): 3.92
- pKd (MPDZ_12, O75970; [1]): below the threshold
- pKd (SNTG2, Q9NY99; [1]): 4.12
- pKd (PDZD2_2, O15018; [1]): 4.44
- pKd (GRIP1_4, Q9Y3R0; [1]): below the threshold
- pKd (NHERF3_4, Q5T2W1; [1]): below the threshold
- pKd (FRMPD2_1, Q68DX3; [1]): 3.75
- pKd (SCRIB_3, Q14160; [1]): 5.34
- pKd (LIMK2, P53671; [1]): below the threshold
- pKd (GRIP2_7, Q9C0E4; [1]): 3.75
- pKd (GRID2IP_2, A4D2P6; [1]): 3.84
- pKd (FRMPD4, Q14CM0; [1]): below the threshold
- pKd (MAGI2_4, Q86UL8; [1]): 4.49
- pKd (DLG1_2, Q12959; [1]): 5.75
- pKd (PARD3_3, Q8TEW0; [1]): 3.71

Binder: VNKVWDQSSV [CIT, O14578]
- pKd (MPP2, Q14168; [1]): below the threshold
- pKd (LNX1_3, Q8TBB1; [1]): below the threshold
- pKd (APBA1_2, Q02410; [1]): 3.49
- pKd (NOS1, P29475; [1]): below the threshold
- pKd (DLG4_2, P78352; [1]): below the threshold
- pKd (FRMPD2_2, Q68DX3; [1]): below the threshold
- pKd (DLG3_3, Q92796; [1]): 3.7
- pKd (GRIP1_7, Q9Y3R0; [1]): below the threshold
- pKd (MAGI2_6, Q86UL8; [1]): 3.57
- pKd (PTPN13_1, Q12923; [1]): below the threshold
- pKd (NHERF4_2, Q86UT5; [1]): below the threshold
- pKd (LIN7B, Q9HAP6; [1]): below the threshold
- pKd (AHNAK1, Q09666; [1]): below the threshold
- pKd (MPDZ_12, O75970; [1]): below the threshold
- pKd (SNTG2, Q9NY99; [1]): below the threshold
- pKd (PDZD2_2, O15018; [1]): 4.86
- pKd (GRIP1_4, Q9Y3R0; [1]): below the threshold
- pKd (NHERF3_4, Q5T2W1; [1]): below the threshold
- pKd (FRMPD2_1, Q68DX3; [1]): below the threshold
- pKd (SCRIB_3, Q14160; [1]): below the threshold
- pKd (LIMK2, P53671; [1]): below the threshold
- pKd (GRIP2_7, Q9C0E4; [1]): below the threshold
- pKd (GRID2IP_2, A4D2P6; [1]): 3.74
- pKd (FRMPD4, Q14CM0; [1]): below the threshold
- pKd (MAGI2_4, Q86UL8; [1]): below the threshold
- pKd (DLG1_2, Q12959; [1]): 3.48
- pKd (PARD3_3, Q8TEW0; [1]): below the threshold
